This is an account of results in patent US20130123472A1 (GlaxoSmithKline, published 2013).

Where no end group is shown, it is not given here.

Assay [1] has as its target T1, peptide MA3#1 conjugated to KLH (human, also: conjugated to KLH).
T1 construct: MAGE-A3 residues 137-147 with added residue(s) at the N-terminus for linkage to the carrier; also called MAGE-A3 peptide #1; peptide #1
T1 peptide: CGSVVGNWQYFF
The assay is described as follows: ELISA, clone culture supernatant on coated antigen, GAM IgG-HRP, OD 405 nm. The method, then:
(§1) Wells of a Nunc MAXISORP™ 96-well were coated with antigen. The antigen was diluted in Tris-buffered saline (TBS) at 0.1 μg/50 μl for purified recombinant MAGE proteins, or at 0.5 μg/50 μl for peptides conjugated to KLH, and distributed at 50 μl per well and dried overnight at 37° C. The wells were washed several times in TBS and 50 μl of TBS-1% casein was added to each well. Wells were incubated for 1 hour at 37° C. and washed again several times in TBS.
(§2) In total, 75 clones from Example 5 that grew easily after transfer into 24-well plates were tested two days later in ELISA for reactivity with the following antigens: recombinant MAGE-A3, recombinant MAGE-A2; recombinant MAGE-A12; peptide MA3 #1 conjugated to KLH; peptide MA3 #2 conjugated to KLH; and peptide MA3#3 conjugated to KLH.
(§3) For each clone, 50 μl of culture medium supernatant was transferred into a well of a 96-well plate containing 0.1 μg/well of one of the recombinant MAGE proteins or 0.5 μg/well of one of the peptides conjugated to KLH. As positive control, 50 μl of 57B hybridoma supernatant was tested on each of the antigens.
Background: An ELISA detects its analyte on a solid surface through an enzyme-linked reagent.

In assay [2] the target is T2, MAGE-A12 recombinant protein (LVL314) (human, UniProt P43365 1-314).
T2 construct: Purified full-length recombinant protein in ELISA and Western blot; the same id is used for MAGE-A12 in lysates of transfected HEK 293 cells; also called recMA12
The description is as above. The method, then: as §1, §2, §3

Assay [3] addresses T3, peptide MA3#2 conjugated to KLH (human, also: conjugated to KLH).
T3 construct: MAGE-A3 residues 163-180 with an added N-terminal residue; by an error of synthesis it lacks the Ile of position 177; also called MAGE-A3 peptide #2; peptide #2
T3 peptide: CGIELMEVDPIGHLYFAT
The description is as above. How it is done: as §1, §2, §3

Assay [4] concerns the target T4, peptide MA3#3 conjugated to KLH (human, conjugated to keyhole limpet haemocyanin (KLH)).
T4 construct: MAGE-A3 residues 73-90 with two added residues at the N-terminus for linkage to the carrier; also called MAGE-A3 peptide #3; peptide #3
T4 peptide: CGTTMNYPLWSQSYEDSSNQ
The description is as above. The method, then: as §1, §2, §3

Assay [5] addresses T5, MAGE-A2 recombinant protein (LVL313) (human, UniProt P43356 1-314).
T5 construct: Purified full-length recombinant protein in ELISA and Western blot; the same id is used for MAGE-A2 in lysates of transfected HEK 293 cells; also called recMA2
Described as above. The method, then:
as §1, §2, §3

Assay [6] addresses T6, full-length recombinant MAGE-A3 protein (human, UniProt P43357 1-314).
T6 construct: Full-length recombinant protein (made in baculovirus or E. coli, GSK); Also used here for endogenous MAGE-A3 in GERL cell lysate and for summary statements on MAGE-A3; also called recMA3; MA3
As to the kind of experiment: ELISA, biotinylated mAb 23D2 on 0.1 µg/well recombinant MAGE-A3, OD 405 nm. The method, then:
An ELISA against MAGE-A3 was then performed using dilutions of biotinylated mAb 23D2 ([…], 0.1, 0.15, 0.2, 0.25 and 0.3 μg/50 μl) to determine useful conditions of use of the biotinylated mAb 23D2.

The target of assay [7] is T3, peptide MA3#2 conjugated to KLH. The assay is described as follows: ELISA, hybridoma supernatant on 0.5 µg/well peptide-KLH.

T2 sequence (P43365 whole entry): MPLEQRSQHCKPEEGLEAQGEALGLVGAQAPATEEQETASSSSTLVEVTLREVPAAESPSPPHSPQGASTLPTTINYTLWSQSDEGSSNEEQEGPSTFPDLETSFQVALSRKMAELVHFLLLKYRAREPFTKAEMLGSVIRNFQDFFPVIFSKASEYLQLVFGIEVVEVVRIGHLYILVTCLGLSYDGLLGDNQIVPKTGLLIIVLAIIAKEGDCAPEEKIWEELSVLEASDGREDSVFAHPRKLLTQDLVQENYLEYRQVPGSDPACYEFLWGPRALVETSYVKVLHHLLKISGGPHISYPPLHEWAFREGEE
T5 sequence (P43356 whole entry): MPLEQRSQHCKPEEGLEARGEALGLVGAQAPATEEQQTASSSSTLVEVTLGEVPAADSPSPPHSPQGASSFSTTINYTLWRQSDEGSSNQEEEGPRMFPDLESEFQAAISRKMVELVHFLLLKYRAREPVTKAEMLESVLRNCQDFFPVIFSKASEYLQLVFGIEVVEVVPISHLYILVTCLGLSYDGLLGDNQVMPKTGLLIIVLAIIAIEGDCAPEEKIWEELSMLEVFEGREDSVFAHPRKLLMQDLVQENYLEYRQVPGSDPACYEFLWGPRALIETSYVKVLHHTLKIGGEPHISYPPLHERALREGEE
T6 sequence (P43357 whole entry): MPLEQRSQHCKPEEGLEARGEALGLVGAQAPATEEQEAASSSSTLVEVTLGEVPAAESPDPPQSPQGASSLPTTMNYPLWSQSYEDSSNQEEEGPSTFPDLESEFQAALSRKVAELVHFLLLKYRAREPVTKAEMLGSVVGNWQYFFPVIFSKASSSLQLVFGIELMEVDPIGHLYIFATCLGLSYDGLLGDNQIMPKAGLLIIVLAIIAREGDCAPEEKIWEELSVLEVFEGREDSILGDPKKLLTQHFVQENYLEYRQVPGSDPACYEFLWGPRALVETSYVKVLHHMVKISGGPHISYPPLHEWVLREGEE

B1: mAb 16G7 (antibody, IgG1, V domains shown)
VH: EVMVVESGGGLVKPGGSLKLSCAASGFTFRTNAMSWVRQTPEKRLEWVATITSGGGSTYYPVSVKGRFTISRDNAKNTLYLQMSSLRSEDTAIYYCVRQDYFDYWGQGTFVIVSS
VL: QAVVTQESALTTSPGETVTLTCRSSTGAVTSTNYANWVQEKPDHLFTGLIGGTNNRAPGVPARFSGSLIGDKAALTITGAQTEDEAIYFCALWYSNHWVFGGGTKLTVL
notes: also called clone 16G7; hybridoma 16G7
With B1, the binding result in assay [1] is listed as “no binding”; in assay [2], “no binding”; in assay [3], “no binding”; in assay [4] it was “binds”; in assay [5] it was “no binding”.

B2: mAb 23D2 (antibody, IgG2a, V domains shown)
VH: DVKLVESGGGLVKPGGSLKVSCVASGFTFSSYTMSWVRQTPEKRLEWVATITSGGGSSYYPDSVKGRFTISRDNAKNTLYLQITSLKSEDTAMYYCTSGGGVLLRLPLFAYWGQGTTLTVSS
VL: QAVVTQESALTTSPGETVTLTCRSSTGAVTASNYANWVQEKPDHSFTGLIGGINNRAPGVPARFSGSLIGDKAALTITGAQTEDEAIYFCALWYNNHWVFGGGTKLTVL
modifications: In the FIG. 8 ELISA and the FIG. 9 competition assay the antibody was biotinylated; the sites are not stated and the letters do not carry them.
notes: also called clone 23D2; hybridoma 23D2
As to B2, the binding result in assay [1] is reported as “no binding”; in assay [2], “no binding”; in assay [3], “no binding”; in assay [4], “binds”; in assay [5], “no binding”. The “EC50 (read off the curve)” value in assay [6] was approximately 0.006 µg/50 µl.

B3: mAb 1B1 (antibody, IgG1, V domains shown)
VH: DVQLQESGPGLVKPSQSLSLTCTVTGYSITSDYVWNWIRQFPGNKLEWMGYIGHSGRTSYNPSLKSRISITRDTSKNQFFLQLNSVTSEDTATYYCARGGNNGFAYWGQGTLVTVSA
VL: DIVMTQSPSSLTVTAGEKVTMSCKSSQSLLNSGNQKNYLTWYQQKPGQPPKLLIYWTSTRDSGVPDRFTGSGSGTDFTLTISSVQAEDLAVYYCQNDYSYPPTFGGGTKLEIKR
notes: Tested as hybridoma supernatant; also called clone 1B1; hybridoma 1B1
Regarding B3, the binding result in assay [1] is listed as “no binding”; in assay [2], “no binding”; in assay [4], “binds”; in assay [5], “no binding”; in assay [7] it was “no binding”.
